Reference: IntAct's records for PubMed 20952573

B1: Transcriptional regulatory protein RcsB (Escherichia coli (strain K12)), P0DMC7 (parent)
chain: MNNMNVIIADDHPIVLFGIRKSLEQIEWVNVVGEFEDSTALINNLPKLDAHVLITDLSMPGDKYGDGITLIKYIKRHFPSLSIIVLTMNNNPAILSAVLDLDIEGIVLKQGAPTDLPKALAALQKGKKFTPESVSRLLEKISAGGYGDKRLSPKESEVLRLFAEGFLVTEIAKKLNRSIKTISSQKKSAMMKLGVENDIALLNYLSSVTLSPADKD
partner: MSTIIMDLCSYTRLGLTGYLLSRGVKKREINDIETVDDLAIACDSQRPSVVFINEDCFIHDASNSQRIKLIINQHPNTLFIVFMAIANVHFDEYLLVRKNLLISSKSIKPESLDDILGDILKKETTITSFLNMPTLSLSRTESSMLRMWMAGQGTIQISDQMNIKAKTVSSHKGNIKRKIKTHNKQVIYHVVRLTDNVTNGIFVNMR

Variants of: B1
Details: with rcsa_ecoli rcsA

| Variant | effect of a mutation on the interaction |
| --- | --- |
| MNNMNVIIADDHPIVLFGIRKSLEQIEWVNVVGEFEDSTALINNLPKLDAHVLITELSMPGDKYGDGITLIKYIKRHFPSLSIIVLTMNNNPAILSAVLDLDIEGIVLKQGAPTDLPKALAALQKGKKFTPESVSRLLEKISAGGYGDKRLSPKESEVLRLFAEGFLVTEIAKKLNRSIKTISSQKKSAMMKLGVENDIALLNYLSSVTLSPADKD [D56E] | decreasing interaction |
